Measured values taken from the RNAGym collection of RNA variant scans (doi:10.1093/nar/gkz1192).

B1: CPEB3 Ribozyme (parent)
chain: UAACAGGGGGCCACAGCAGAAGCGUUCACGUCGCAGCCCCUGUCAGAUUCUGGUGAAUCUGCGAAUUCUGCUGUAUAUCUC

Variants of: B1
Assay: self-cleavage, relative activity (ratio to wild type); higher = more cleavage; in vitro, sequencing
Method in brief: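 Barcoded CPEB3 ribozyme mutants, produced by rounds of error-prone PCR, self-cleaved while being transcribed with T7 RNA polymerase for 5 hours at 37°C and during a subsequent 15 min DNase I step before EDTA was added. Sequencing of template-switched cDNA on Illumina gave cleaved and total reads, and DNA sequencing assigned barcodes to variants. Each variant's relative activity is its cleaved/total read fraction divided by the unmutated ribozyme's fraction, averaged across three batches. A variant needed a minimum of 5 reads.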
G30A U69C showed a self-cleavage of 0.33. With G30A U69A the self-cleavage was 0.23. Work on G30A U69G yielded a self-cleavage of 0.19. Work on C29U U31C yielded a self-cleavage of 0.31. Variant C29U U31A has a self-cleavage of 0.2. With G30A U72C the self-cleavage was 0.33. For G30A U72A, the self-cleavage was 0.2. Work on G30C U48C yielded a self-cleavage of 0.16. G30U A35G showed a self-cleavage of 0.05. U31A G53C gave a self-cleavage of 0.51. Variant U31A G53A has a self-cleavage of 0.53. G30A C34G showed a self-cleavage of 0.38. In the case of C29U G42A, the self-cleavage is reported as 0.21. With C29U G42U the self-cleavage was 0.23. For C29U C79U, the self-cleavage was 0.38. Work on C29U C79G yielded a self-cleavage of 0.68. In the case of C29U C79A, the self-cleavage is reported as 0.7. In the case of U31A C68U, the self-cleavage is reported as 0.54. In the case of U31A A75U, the self-cleavage is reported as 0.61. U31A A75G gave a self-cleavage of 0.47. U31A U76C showed a self-cleavage of 0.48. In the case of U31A U69A, the self-cleavage is reported as 0.29. With U31A U69G the self-cleavage was 0.27. Variant U31A U69C has a self-cleavage of 0.3. In the case of C29U U74C, the self-cleavage is reported as 0.97. G30U A57U gave a self-cleavage of 0.14. In the case of G30U A57G, the self-cleavage is reported as 0.13. Work on G30C G73A yielded a self-cleavage of 0.11. In the case of G30U C79G, the self-cleavage is reported as 0.12. Variant U31A G73A has a self-cleavage of 1.04. Variant U31A G73C has a self-cleavage of 1.08. Variant U31A C38U has a self-cleavage of 0.53. With G30A U80A the self-cleavage was 0.22. With G30A U80C the self-cleavage was 0.41. G30U U41C showed a self-cleavage of 0.27. With G30U U41A the self-cleavage was 0.16. G30U U41G gave a self-cleavage of 0.13. With U31A U60A the self-cleavage was 0.32. For U31A U60G, the self-cleavage was 0.2. For U31A U60C, the self-cleavage was 0.25. For U31C A56G, the self-cleavage was 0.67. U31C A56U showed a self-cleavage of 0.47. U31C A75C gave a self-cleavage of 1.1. For U31C A75U, the self-cleavage was 0.87. U31C A75G gave a self-cleavage of 0.77. For G30A U58A, the self-cleavage was 0.09. With G30A U58C the self-cleavage was 0.16. Variant U31A G36U has a self-cleavage of 0.1. U31A C34G gave a self-cleavage of 0.2. For U31A C34U, the self-cleavage was 0.23. G30U U69A gave a self-cleavage of 0.1. Work on G30U G52A yielded a self-cleavage of 0.17. In the case of U31C A64C, the self-cleavage is reported as 0.14. In the case of U31C A64U, the self-cleavage is reported as 0.31. Work on U31C A64G yielded a self-cleavage of 0.64. For G30C U76A, the self-cleavage was 0.17. With G30C U72G the self-cleavage was 0.16. Work on G30C U72A yielded a self-cleavage of 0.13. G30C C62U showed a self-cleavage of 0.06. For G30U A47G, the self-cleavage was 0.22. Variant G30A A47U has a self-cleavage of 0.18. G30A A47G showed a self-cleavage of 0.41. For G30U U72G, the self-cleavage was 0.15. G30U U72C gave a self-cleavage of 0.08. For G30U U72A, the self-cleavage was 0.22. With U31A A65U the self-cleavage was 0.37. Work on U31A A65G yielded a self-cleavage of 0.36. G30U U78C showed a self-cleavage of 0.09. U31A C39U gave a self-cleavage of 0.34. With U31A C71U the self-cleavage was 0.29. U31A C71G gave a self-cleavage of 0.19. U31A C71A gave a self-cleavage of 0.17. G30U G70C showed a self-cleavage of 0.15. In the case of G30A, the self-cleavage is reported as 0.29. In the case of G30U, the self-cleavage is reported as 0.25. In the case of G30C, the self-cleavage is reported as 0.28. With G30A C71U the self-cleavage was 0.18. Work on G30A U31C yielded a self-cleavage of 0.35. With G30A U31A the self-cleavage was 0.32. With G30A U31G the self-cleavage was 0.21. With G30C A64U the self-cleavage was 0.2. In the case of G30U C62A, the self-cleavage is reported as 0.08. G30C U43C gave a self-cleavage of 0.25. For G30C U78C, the self-cleavage was 0.38. Work on G30C U78G yielded a self-cleavage of 0.2. Variant U31A U67C has a self-cleavage of 0.2. With U31A U67A the self-cleavage was 0.34. U31A U49A gave a self-cleavage of 0.41. For U31A U49C, the self-cleavage was 0.22. C29U U66A showed a self-cleavage of 0.22. C29U U66C showed a self-cleavage of 0.37. In the case of U31C A57G, the self-cleavage is reported as 0.75. U31C A57U gave a self-cleavage of 0.47. U31C A57C showed a self-cleavage of 0.49. C29U U76A gave a self-cleavage of 0.62. C29U U76C showed a self-cleavage of 0.52. G30U U51C showed a self-cleavage of 0.16. For G30U U51A, the self-cleavage was 0.11. Variant C29U U48C has a self-cleavage of 0.25. In the case of G30C G33U, the self-cleavage is reported as 0.19. G30U A56G gave a self-cleavage of 0.26. In the case of U31C C62G, the self-cleavage is reported as 0.14. U31C C62A showed a self-cleavage of 0.23. U31C C62U gave a self-cleavage of 0.24. U31A C81U showed a self-cleavage of 0.58. G30A A45C gave a self-cleavage of 0.17. G30A A45U gave a self-cleavage of 0.32. G30A A45G showed a self-cleavage of 0.25. U31A U41C showed a self-cleavage of 0.51. For U31A U41A, the self-cleavage was 0.33. For U31A U41G, the self-cleavage was 0.29. For G30A A35U, the self-cleavage was 0.15. G30A A35G showed a self-cleavage of 0.22. Variant U31A G52A has a self-cleavage of 0.69. U31A G52C showed a self-cleavage of 0.5. Work on U31A U58C yielded a self-cleavage of 0.36. With C29U U58G the self-cleavage was 0.17. With C29U U58C the self-cleavage was 0.46. C29U U58A gave a self-cleavage of 0.43. U31A U54A showed a self-cleavage of 0.55. Variant U31A U54G has a self-cleavage of 0.55. In the case of U31A U54C, the self-cleavage is reported as 0.5. In the case of G30A G46A, the self-cleavage is reported as 0.15. With C29U U72G the self-cleavage was 0.53. With C29U U72A the self-cleavage was 0.42. Work on C29U U72C yielded a self-cleavage of 0.75. Work on G30C A56G yielded a self-cleavage of 0.16. U31A G63A showed a self-cleavage of 0.39. With G30U U60C the self-cleavage was 0.15. Work on G30U U31C yielded a self-cleavage of 0.43. Work on U31C C37A yielded a self-cleavage of 0.28. Variant U31C C37U has a self-cleavage of 0.46. U31A U48A gave a self-cleavage of 0.13. U31A U48C showed a self-cleavage of 0.29. U31A U48G showed a self-cleavage of 0.16. For G30A A57G, the self-cleavage was 0.29. In the case of U31A A45U, the self-cleavage is reported as 0.32. For U31A A45G, the self-cleavage was 0.35. G30C U54A showed a self-cleavage of 0.22. Work on U31A C62U yielded a self-cleavage of 0.26. Variant U31A C62A has a self-cleavage of 0.28. With C29U U49A the self-cleavage was 0.16. For C29U U49C, the self-cleavage was 0.39. G30A U60A showed a self-cleavage of 0.08. G30A U60C showed a self-cleavage of 0.15. In the case of G30A U60G, the self-cleavage is reported as 0.34. For G30C A65G, the self-cleavage was 0.11. G30C A65U gave a self-cleavage of 0.3. With G30C A65C the self-cleavage was 0.11. With U31C C34U the self-cleavage was 0.24. U31C C34A gave a self-cleavage of 0.15. For U31A G46U, the self-cleavage was 0.12. For U31A G46C, the self-cleavage was 0.2. For U31A U74A, the self-cleavage was 0.74. Variant U31A U74G has a self-cleavage of 0.84. Work on U31A U74C yielded a self-cleavage of 0.77. Variant G30A G73U has a self-cleavage of 0.46. In the case of G30A A77U, the self-cleavage is reported as 0.33. For G30A A77G, the self-cleavage was 0.4. Work on G30U G33A yielded a self-cleavage of 0.24. For U31C A47G, the self-cleavage was 0.8. For U31C A47C, the self-cleavage was 0.31. U31C A47U gave a self-cleavage of 0.4. G30A G52A gave a self-cleavage of 0.21. With U31C C44U the self-cleavage was 0.26. For U31C C44A, the self-cleavage was 0.4. Variant U31C C44G has a self-cleavage of 0.31.
